# Measured values reported in patent US20230265199A1.
# Target: Recombinant human SEMA3A Fc chimera (R&D Systems) (human) (UniProt Q14563)
# Assay: plate saturation binding; trap coated, SEMA3A-FC titrated, HRP anti-human IgG chemiluminescence, non-linear fit
row,Molecule,Kd [nM]
1,"Trap O (Human, NRP1-His-Δc-short) (from UniProt O14786 22-583) (receptor)",1.05
2,"Trap G (Human, ""full"" extracellular domain NRP1-His) (from UniProt O14786 22-856) (receptor)",0.8
3,"Trap M (Human, NRP1-His-Δb2c-short) (receptor) FRNDKCGDTIKIESPGYLTSPGYPHSYHPSEKCEWLIQAPDPYQRIMINFNPHFDLEDRDCKYDYVEVFDGENENGHFRGKFCGKIAPPPVVSSGPFLFIKFVSDYETHGAGFSIRYELFKRGPECSQNYTTPSGVIKSPGFPEKYPNSLECTYIVFAPKMSEIILEFESFDLEPDSNPPGGMFCRYDRLEIWDGFPDVGPHIGRYCGQKTPGRIRSSSGILSMVFYTDSAIAKEGFSANYSVLQSSVSEDFKCMEALGMESGEIHSDQITASSQYSTNWSAERSRLNYPENGWTPGEDSYREWIQVDLGLLRFVTAVGTQGAISKETKKKYYVKTYKIDVSSNGEDWITIKEGNKPVLFQGNTNPTDVVVAVFPKPLITRFVRIKPATWETGISMRFEVYGCRSGSKENLYFQGHHHHHH",0.95
4,"Trap Z (Human, ""full"" extracellular domain NRP1-His, VEGF165-Low, E319K/D320K mutations) (receptor) FRNDKCGDTIKIESPGYLTSPGYPHSYHPSEKCEWLIQAPDPYQRIMINFNPHFDLEDRDCKYDYVEVFDGENENGHFRGKFCGKIAPPPVVSSGPFLFIKFVSDYETHGAGFSIRYELFKRGPECSQNYTTPSGVIKSPGFPEKYPNSLECTYIVFAPKMSEIILEFESFDLEPDSNPPGGMFCRYDRLEIWDGFPDVGPHIGRYCGQKTPGRIRSSSGILSMVFYTDSAIAKEGFSANYSVLQSSVSEDFKCMEALGMESGEIHSDQITASSQYSTNWSAERSRLNYPENGWTPGKKSYREWIQVDLGLLRFVTAVGTQGAISKETKKKYYVKTYKIDVSSNGEDWITIKEGNKPVLFQGNTNPTDVVVAVFPKPLITRFVRIKPATWETGISMRFEVYGCKITDYPCSGMLGMVSGLISDSQITSSNQGDRNWMPENIRLVTSRSGWALPPAPHSYINEWLQIDLGEEKIVRGIIIQGGKHRENKVFMRKFKIGYSNNGSDWKMIMDDSKRKAKSFEGNNNYDTPELRTFPALSTRFIRIYPERATHGGLGLRMELLGCEVEAPTAGPTTPNGNLVDECDDDQANCHSGTGDDFQLTGGTTVLATEKPTVIDSTIQSEFPTYGFNCEFGWGSHKTFCHWEHDNHVQLKWSVLTSKTGPIQDHTGDGNFIYSQADENQKGKVARLVSPVVYSQNSAHCMTFWYHMSGSHVGTLRVKLRYQKPEEYDQLVWMAIGHQGDHWKEGRVLLHKSLKLYQVIFEGEIGKGNLGGIAVDDISINNHISQEDCAKPADLDKKNPEIKIDETGSTPGYEGEGEGDKNISRKPGNVLKTLDPRSGSKENLYFQGHHHHHH",4.44
5,"Trap AC (Human, ""full"" extracellular domain NRP1-His-VEGF-low, D320K mutation) (receptor) FRNDKCGDTIKIESPGYLTSPGYPHSYHPSEKCEWLIQAPDPYQRIMINFNPHFDLEDRDCKYDYVEVFDGENENGHFRGKFCGKIAPPPVVSSGPFLFIKFVSDYETHGAGFSIRYELFKRGPECSQNYTTPSGVIKSPGFPEKYPNSLECTYIVFAPKMSEIILEFESFDLEPDSNPPGGMFCRYDRLEIWDGFPDVGPHIGRYCGQKTPGRIRSSSGILSMVFYTDSAIAKEGFSANYSVLQSSVSEDFKCMEALGMESGEIHSDQITASSQYSTNWSAERSRLNYPENGWTPGEKSYREWIQVDLGLLRFVTAVGTQGAISKETKKKYYVKTYKIDVSSNGEDWITIKEGNKPVLFQGNTNPTDVVVAVFPKPLITRFVRIKPATWETGISMRFEVYGCKITDYPCSGMLGMVSGLISDSQITSSNQGDRNWMPENIRLVTSRSGWALPPAPHSYINEWLQIDLGEEKIVRGIIIQGGKHRENKVFMRKFKIGYSNNGSDWKMIMDDSKRKAKSFEGNNNYDTPELRTFPALSTRFIRIYPERATHGGLGLRMELLGCEVEAPTAGPTTPNGNLVDECDDDQANCHSGTGDDFQLTGGTTVLATEKPTVIDSTIQSEFPTYGFNCEFGWGSHKTFCHWEHDNHVQLKWSVLTSKTGPIQDHTGDGNFIYSQADENQKGKVARLVSPVVYSQNSAHCMTFWYHMSGSHVGTLRVKLRYQKPEEYDQLVWMAIGHQGDHWKEGRVLLHKSLKLYQVIFEGEIGKGNLGGIAVDDISINNHISQEDCAKPADLDKKNPEIKIDETGSTPGYEGEGEGDKNISRKPGNVLKTLDPRSGSKENLYFQGHHHHHH",4
6,"Trap R (Human, NRP1-His-Δc-VEGF low) (receptor) FRNDKCGDTIKIESPGYLTSPGYPHSYHPSEKCEWLIQAPDPYQRIMINFNPHFDLEDRDCKYDYVEVFDGENENGHFRGKFCGKIAPPPVVSSGPFLFIKFVSDYETHGAGFSIRYELFKRGPECSQNYTTPSGVIKSPGFPEKYPNSLECTYIVFAPKMSEIILEFESFDLEPDSNPPGGMFCRYDRLEIWDGFPDVGPHIGRYCGQKTPGRIRSSSGILSMVFYTDSAIAKEGFSANYSVLQSSVSEDFKCMEALGMESGEIHSDQITASSQASTNWSAERSRLNYPENGWTPGEDSYREWIQVDLGLLRFVTAVGTQGAISKETKKKYYVKTYKIDVSSNGEDWITIKEGNKPVLFQGNTNPTDVVVAVFPKPLITRFVRIKPATWETGISMRFEVYGCKITDYPCSGMLGMVSGLISDSQITSSNQGDRNWMPENIRLVTSRSGWALPPAPHSYINEWLQIDLGEEKIVRGIIIQGGKHRENKVFMRKFKIGYSNNGSDWKMIMDDSKRKAKSFEGNNNYDTPELRTFPALSTRFIRIYPERATHGGLGLRMELLGCEVEAPTAGPTTPNGNLVDECDDDQANCHSGTGDDFQLTGGTTVLATEKPTVIDSTIQSEFPTYGFNCEFGWGSHKTFCHWEHDNHVQLKWSVLTSKTGPIQDHTGDGNFIYSQADENQKGKVARLVSPVVYSQNSAHCMTFWYHMSGSHVGTLRVKLRYQKPEEYDQLVWMAIGHQGDHWKEGRVLLHKSLKLYQVIFEGEIGKGNLGGIAVDDISINNHISQEDCAKPADLDKKNPEIKIDETGSTPGYEGEGEGDKNISRKPGNVLKTLDPRSGSKENLYFQGHHHHHH",6.15
